In this experiment the target is T1, Plasmodium falciparum PfRh5 protein (recombinant, expressed in Sf9 insect cells) (Plasmodium falciparum (恶性疟原虫), UniProt Q8IFM5 25-526, limits assumed).
T1 construct: In the BLI assay the protein was amine-coupled to AR2G sensors; also called 恶性疟PfRh5蛋白; PfRh5蛋白
T1 sequence (looked up): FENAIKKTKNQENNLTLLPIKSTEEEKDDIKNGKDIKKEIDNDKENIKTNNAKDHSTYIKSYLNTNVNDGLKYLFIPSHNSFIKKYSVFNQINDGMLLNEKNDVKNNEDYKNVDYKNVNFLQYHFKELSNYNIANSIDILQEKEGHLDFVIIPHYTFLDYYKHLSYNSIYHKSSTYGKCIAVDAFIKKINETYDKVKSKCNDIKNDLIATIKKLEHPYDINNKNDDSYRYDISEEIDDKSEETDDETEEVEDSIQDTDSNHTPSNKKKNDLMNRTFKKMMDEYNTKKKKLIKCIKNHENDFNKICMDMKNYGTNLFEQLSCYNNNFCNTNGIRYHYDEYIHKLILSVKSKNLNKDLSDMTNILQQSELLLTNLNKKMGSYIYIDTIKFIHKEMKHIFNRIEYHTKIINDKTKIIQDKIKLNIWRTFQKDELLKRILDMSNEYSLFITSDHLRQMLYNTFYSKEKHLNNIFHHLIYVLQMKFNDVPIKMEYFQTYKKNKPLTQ
Briefly: BLI (Octet-Red96) at 37°C; PfRh5 amine-coupled to AR2G sensor; G9 as analyte at 1.2-100 nM in 3-fold dilutions; 1:1 fit. Background: In BLI a coated tip is dipped into the sample, and binding shifts an interference pattern.

B1: G9 antigen-binding fragment (Fab), fully human, against Plasmodium falciparum PfRh5 (Fab, V domains shown)
VH: EVQLVQSGGGLVQPGGSLRLSCAASGFTFDDYAMHWVRQAPGKGLEWVAVIWYDGSNKYYADSVKGRFTISRDNSKNTLYLQMNSLRAEDTAVYYCAREHIDDPAMVPSPPAFDIWGQGTMVTVSS
VL: EIVLTQSPATLSLSPGERATLSCRASQSVSSYLAWYQQKPGQAPRLLIYDASNRATGIPARFSGSGSGTDFTLTISSLEPEDFATYYCQQSYSTPRTFGQGTKLEIK
notes: also called 抗体G9; 克隆G9
Turning to B1, the Kd worked out at 4.9 nM.

For orientation: Kd means a measure of binding affinity in units of concentration.

Source of the values: patent CN111690062A (UNIV FUDAN, dated 2020).
